Assay results from patent publication US20200165351A1 (University of California, published 2020).
Each block holds one binder with its values, some of them ahead of it.

Tests used:
[1] = target: bacterially produced human N-cadherin ECD4 with ECD3 overhang (human) (UniProt P19022); experiment: ELISA, saturation binding on immobilized antigen, half-maximal binding
[2] = target: T1, recombinant human N-cadherin ECD1-3-Fc (human; murine, UniProt P19022 160-497); experiment: ELISA, saturation binding on immobilized antigen
T1 construct: range 160-497; Cloned into pSECTag2A(AgeI); produced in 293-F cells, Protein A purified; also called Ncad-ECD1-3-Fc; not shown: murine gamma 2a Fc region
T1 sequence (looked up): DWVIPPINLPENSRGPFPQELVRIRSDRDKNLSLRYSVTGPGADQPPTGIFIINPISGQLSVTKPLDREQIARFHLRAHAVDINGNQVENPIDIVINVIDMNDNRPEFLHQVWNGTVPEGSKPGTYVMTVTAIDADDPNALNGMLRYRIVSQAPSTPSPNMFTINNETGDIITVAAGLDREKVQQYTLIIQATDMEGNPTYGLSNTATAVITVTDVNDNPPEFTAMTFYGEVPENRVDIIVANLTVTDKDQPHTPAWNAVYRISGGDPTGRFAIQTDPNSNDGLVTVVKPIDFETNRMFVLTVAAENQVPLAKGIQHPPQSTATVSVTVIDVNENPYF
Protocol: Saturation binding of the humanized scFv fragments was performed on immobilized recombinant human Ncad-ECD1-3-Fc in ELISA (FIG. 8) confirming successful humanization and retained antigen specificity.

[3] = target: T2, bacterially produced N-cadherin ECD1-3 (UniProt P19022 160-497, limits assumed); experiment: ELISA, saturation binding on immobilized antigen, half-maximal binding
T2 construct: domain: ECD1-3; Antigen against which hybridoma 1H7 was selected; also called ECD1-3 (bacterially produced)
T2 sequence (looked up): T1 sequence (looked up)
Protocol: FIG. 11 depicts saturation binding of full length IgGs to recombinant antigen in ELISA. Bacterially produced antigens ECD4 and ECD1-3 were immobilized. Bound antibodies were detected with goat anti-human Fcg-AP or goat anti-mouse Fcg-AP respectively.
Saturation binding of the humanized full-length antibodies in comparison to the parental murine antibodies was tested in ELISA.

Kd [1]: 0.5 nM
B1: hu2A9 IgG (antibody, V domains shown)
VH: QVQLVQSGAEVKKPGASVKLSCKASGYTFTSYWMQWVRQAPGQGLEWIGAIYPGDGETTYTQKFKGRVTMTADTSISTAYMELSRLRSDDTAVYYCAKGDGYWAMDYWGQGTLVTVSS
VL: DVVMTQSPLSLPVTLGQPASISCRSSQSLVHSNGNTYLHWYQQRPGQSPRLLIYKVSNRFSGVPDRFSGSGSGTDFTLKISRVEAEDVGVYYCSQSTHVPLTFGAGTKLELK

binding result [2]: binds
B2: humanized 2A9 scFv (scFv)
scFv: QVQLVQSGAEVKKPGASVKLSCKASGYTFTSYWMQWVRQAPGQGLEWIGAIYPGDGETTYTQKFKGRVTMTADTSISTAYMELSRLRSDDTAVYYCAKGDGYWAMDYWGQGTLVTVSSGGGGSGGGGSGGGGSDVVMTQSPLSLPVTLGQPASISCRSSQSLVHSNGNTYLHWYQQRPGQSPRLLIYKVSNRFSGVPDRFSGSGSGTDFTLKISRVEAEDVGVYYCSQSTHVPLTFGAGTKLELK
notes: VH-(G4S)3-VL scFv secreted with the Ig kappa leader; also called hu2A9 scFv; scFv hu2A9; not shown: C-terminal tag from vector pSECTag2A (His-tag; detected through c-Myc)

Kd [3]: 0.4 nM
B3: hu1H7 IgG (antibody, V domains shown)
VH: QVQLVQSGAEVKKPGASVKVSCKASGFTFTDYLIQWVRQAPGQGLEWIGWIYPGSGSIKYNEKFQGRVTMTADTSINTAYMELSRLRSDDTAVYFCARRGDWGGFFDYWGQGTLVTVSS
VL: EIVLTQSPATLSLSPGERATLSCTASSSVSSSYLHWYQQKPGLAPRLWIFSTSNLASGIPDRFSGSGSGTDFTLTISRLEPEDFAVYYCHQYHRSLTFGGGTKVEIK
notes: also called h1H7; humanized full-length antibody hu1H7
